# Laboratory results reported in PMC10333351 (Nature Communications, 2023).
# Numbering of substitutions follows the chain as printed.
# T1: FtsZ from Escherichia coli, full length, purified (tag state not stated) (Escherichia coli, UniProt P0A9A6 1-383)
# T1 chain: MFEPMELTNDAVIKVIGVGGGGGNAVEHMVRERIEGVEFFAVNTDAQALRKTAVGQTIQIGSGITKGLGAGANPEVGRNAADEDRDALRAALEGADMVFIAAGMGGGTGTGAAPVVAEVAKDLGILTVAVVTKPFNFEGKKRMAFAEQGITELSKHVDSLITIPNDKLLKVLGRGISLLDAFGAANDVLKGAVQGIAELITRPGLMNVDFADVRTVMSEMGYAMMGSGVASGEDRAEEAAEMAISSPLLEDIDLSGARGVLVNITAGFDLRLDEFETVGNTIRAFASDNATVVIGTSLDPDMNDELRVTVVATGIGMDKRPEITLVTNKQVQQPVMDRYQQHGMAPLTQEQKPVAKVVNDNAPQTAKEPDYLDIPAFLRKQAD
# T2: FtsZ from Klebsiella pneumoniae, full length, purified (tag state not stated) (Klebsiella pneumoniae, UniProt W9BCK7 1-383)
# T2 chain: T1 chain with D86E, E93D, A345S, V354A, A362T
# B1: Mb(Ec/KpFtsZ_S1), His10-tagged (designed binder)
# chain: MKHHHHHHHHHHSSDYKDDDDKGENLYFQGSVSSVPTKLEVVAATPTSLLISWDAPAVTVSYYRITYGETGGNSPVQEFTVPGSKSTATISGLSPGVDYTITVYARSAYHRRSPISINYRT
# B2: truncated KpFtsZ (residues 11-316), tag removed (domain or fragment, Klebsiella pneumoniae, UniProt W9BCK7 11-316, looked up)
# chain: AVIKVIGVGGGGGNAVEHMVRERIEGVEFFAVNTDAQALRKTAVGQTIQIGSGITKGLGAGANPEVGRNAADEDREALRAALDGADMVFIAAGMGGGTGTGAAPVVAEVAKDLGILTVAVVTKPFNFEGKKRMAFAEQGITELSKHVDSLITIPNDKLLKVLGRGISLLDAFGAANDVLKGAVQGIAELITRPGLMNVDFADVRTVMSEMGYAMMGSGVASGEDRAEEAAEMAISSPLLEDIDLSGARGVLVNITAGFDLRLDEFETVGNTIRAFASDNATVVIGTSLDPDMNDELRVTVVATGIG
# notes: FtsZ, Klebsiella pneumoniae, residues 11-316; also called KpFtsZtr; source: E. coli, purified (HisTrap, HiTrap Q, Superdex200), tag removed with TEV protease; not shown: His6, N-terminal, cleaved
# B3: truncated EcFtsZ (residues 11-316), tag removed (domain or fragment, Escherichia coli, UniProt P0A9A6 11-316, looked up)
# chain: B2 chain with E76D, D83E
# notes: FtsZ, Escherichia coli, residues 11-316; also called EcFtsZtr; source: E. coli, purified (HisTrap, HiTrap Q, Superdex200), tag removed with TEV protease; not shown: His6, N-terminal, cleaved
# B4: FtsZ from Klebsiella pneumoniae, full length, tag removed (natural protein, UniProt W9BCK7 1-383, looked up)
# chain: T1 chain with D86E, E93D, A345S, V354A, A362T
# notes: Used for cryoEM; Polymer (protofilament or double-helical tube); also called KpFtsZ; source: E. coli, purified (HisTrap, HiTrap Q, Superdex200), tag removed with TEV protease; not shown: His6, N-terminal, cleaved
# B5: FtsZ from Klebsiella pneumoniae, full length, purified (tag state not stated) (natural protein, UniProt W9BCK7 1-383, looked up)
# chain: T1 chain with D86E, E93D, A345S, V354A, A362T
# notes: Used for SPR (analyte) and negative staining EM; also called KpFtsZ; source: E. coli, purified (HisTrap, HiTrap Q, Superdex200)
# Columns and labels:
# [1] = target: T1, FtsZ from Escherichia coli, full …; assay: SPR
# [2] = target: T2, FtsZ from Klebsiella pneumoniae, full …; assay: SPR
# [3] = target: the molecule itself; assay: crystal structure; FtsZtr mixed with 1.2x molar excess of Mb and PC190723; hanging drop, 293 K, 0.2 M sodium formate, 0.1 M Bis-Tris propane pH 6.5, 20% PEG3350; space groups P212121 and P21
# [4] = target: the molecule itself; assay: cryo-EM structure; KpFtsZ-Mb double-helical tube: 4.0 mg/ml KpFtsZ, 20 mM HEPES pH 7.5, 25 mM NaCl, 100 mM KCl, 5 mM MgCl2, 1 mM GMPPNP, 0.12 mM PC190723, 1.2x molar excess of Mb
# [5] = target: the molecule itself; assay: negative staining EM; 1.0 mg/ml purified KpFtsZ alone or with 1 mM GTP, GMPCPP, GDP or GMPPNP; uranyl acetate stain
binder,measurement,setting,value
B1,koff,[1],0.39 s⁻¹
same,koff,[2],0.67 s⁻¹
B2,binding result,[3],binds
B3,binding result,[3],binds
B4,binding result,[4],binds
B5,binding result,[5],binds
